Test results: patent publication US20210070881A1

Target: cellular BACE1 in CHOK1-huAPP cells
Experiment: cell-based or functional assay

cellular IC50 (human Aβ40, CHO-huAPP cells): 37 nM
maximum percent Aβ reduction compared to untreated control: 83%
B1: Clone35.23.4:Control IgG (anti-RSV)/2H8 (bispecific antibody, part only; not given: Anti-RSV arm; TfR-binding Fc, V domains shown, part only)
VH: QVQLVQSGAEVKKPGASVKVSCKASGYTFTNFWIHWVRQAPGQGLEWMGMIDPSSSYTKYNQKFKARATLTVDTSTSTVYMELSSLRSEDTAVYYCARSGASLPYWGQGTLVTVSS
VL: DIQMTQSPSSLSASVGDRVTITCKASQDVGRNVAWYQQKPGKSPKSLIYSASHYYSGVPSRFSGSGSGTDFTLTISSLQPEDFATYFCQQYYSYPYTFGQGTKVEIK
